Data on five molecules can be found in patent US12145987B2, “Method for depleting cytotoxic T cells using an anti-LAG-3 antibody composition” (Daiichi Sankyo Company, Limited, priority 2017, dated 2024).

Assay [1] has as its target T1, binding of LAG-3 to MHC class II molecules (Homo sapiens, UniProt P18627).
T1 construct: purchased R&D Systems, Inc
Put plainly: LAG-3/MHC class II binding test (LAG-3-Fc binding to Raji cells, flow cytometry). As to conditions: rat antibodies evaluated at 10 μg/mL. As to the method:
This was conducted according to a previous report (Non Patent Literature 8). That is, 20 μL/well of LAG-3-Fc (manufactured by R&D Systems, Inc.) diluted with RPMI1640 containing 10% FBS to 25 nM was added to a 96-well U-bottom microplate, and 20 μL/well of the hybridoma culture supernatant was added thereto, followed by stirring and standing at 4° C. for 20 minutes. Then, 10 µL/well (2.5×10^5 cells/well) of Raji cells, which endogenously highly express MHC class II molecules, was added thereto, followed by stirring and standing at 4° C. for a further 30 minutes. The cells were washed twice with PBS or a FACS buffer, then an Anti-Human IgG PE conjugate (manufactured by Jackson ImmunoResearch Laboratories, Inc.) diluted 200-fold with a FACS buffer was added thereto for suspension, followed by standing at 4° C. for 20 minutes. After washing with PBS or a FACS buffer, the cells were resuspended in PBS containing 1 to 2% paraformaldehyde, followed by detection using a flow cytometer (CantoII: manufactured by Becton, Dickinson and Company or FC500: manufactured by Beckman Coulter Inc). The data was analyzed using FlowJo (manufactured by Tree Star Inc.), and the percentage of inhibition was calculated by the following formula. Percentage of inhibition (%)=100−(A−B)/(C−B)×100 • A: Mean fluorescence intensity of each sample well • B: Mean fluorescence intensity of background
When adding LAG-3-Fc and the antibody, 20 μL of a medium was added each time. Except for that, the same operation as in the sample well was performed. • C: Mean fluorescence intensity of maximum binding
When adding the antibody, 20 μL of a medium was added thereto.

The subject of assay [2] is immunoglobulin-like domains of human LAG-3. The assay is described as follows: Identification of epitope: flow cytometry on HEK293T cells expressing human LAG-3 domain deletion constructs. It counts as binding. As to conditions: concluded from binding to deletion constructs. The source says:
(§1) Based on the fact that the rat anti-LAG-3 antibodies rLA204, rLA212, rLA225, rLA869, and rLA1264 are antibodies developed using a mutant deficient in the 1st and 2nd domains (which will be hereinafter referred to respectively as domains 1 and 2) from the N terminus out of the four immunoglobulin-like domains present in the extracellular region of LAG-3 as an immunogen, in order to reveal which of the remaining 3rd and 4th domains (which will be hereinafter referred to respectively as domains 3 and 4) from the N terminus these antibodies bind to, binding of the obtained rat anti-LAG-3 antibodies to cells expressing domains 3 and 4, or only domain 4, was investigated by flow cytometry.
(§2) Each expression plasmid (cloned into pcDNA3.1) of either domain 3 and onwards (263-525) or domain 4 and onwards (353-525) of human LAG-3 with a FLAG tag sequence (DYKDDDDK) (SEQ ID NO:87) added to the N terminus was introduced into HEK293T cells using Lipofectamine 2000 (manufactured by Life Technologies Corp.), and the cells were cultured for 1 day and then recovered, to investigate the binding activity of the antibodies by flow cytometry according to the method described in Example 1)-4.
(§3) In addition to the two types of constructs in FIG. 5A, expression plasmids were used of domain 2 and onwards (amino acid positions 173-525 of the human LAG-3 amino acid sequence in SEQ ID No: 86, FIG. 101) of human LAG-3 with a FLAG tag sequence (DYKDDDDK) (SEQ ID NO:87) added to the N terminus and the full length of human LAG-3 (both were constructed using pcDNA3.1; the nucleotide sequence encoding the amino acid sequence of human LAG-3 is described in SEQ ID No: 85, FIG. 100).

The target of assay [3] is T2, immunoglobulin-like domains of human LAG-3 (Homo sapiens, UniProt P18627).
T2 construct: expressed in transfected cells; host or cells: HEK293T cells, pcDNA3.1 plasmids, transient transfection
T2 sequence (P18627 353-525): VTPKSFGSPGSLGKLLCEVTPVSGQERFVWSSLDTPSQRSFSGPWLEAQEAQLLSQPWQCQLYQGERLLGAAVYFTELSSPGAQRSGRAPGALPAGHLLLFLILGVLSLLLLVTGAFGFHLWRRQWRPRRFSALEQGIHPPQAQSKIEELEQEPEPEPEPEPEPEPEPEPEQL
Described as above. It counts as binding. The note with it: FLAG-tagged 353-525, HEK293T cells, 10 μg/mL.
Description: as §1, §2, §3

For assay [4], the target named is T3, immunoglobulin-like domains of human LAG-3 (Homo sapiens, UniProt P18627).
T3 construct: expressed in transfected cells; host or cells: HEK293T cells, pcDNA3.1 plasmids, transient transfection
T3 sequence (P18627 263-525): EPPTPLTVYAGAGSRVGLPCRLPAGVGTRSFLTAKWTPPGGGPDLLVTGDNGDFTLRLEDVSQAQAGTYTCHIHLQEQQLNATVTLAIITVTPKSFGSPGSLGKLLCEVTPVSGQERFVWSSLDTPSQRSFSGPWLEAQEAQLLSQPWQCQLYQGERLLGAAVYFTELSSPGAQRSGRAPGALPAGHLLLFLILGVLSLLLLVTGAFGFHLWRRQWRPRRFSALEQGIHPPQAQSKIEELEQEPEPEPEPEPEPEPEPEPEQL
Described as above. The format is binding. The note with it: FLAG-tagged 263-525, HEK293T cells, 10 μg/mL.
Description: as §1, §2, §3

T1 sequence (P18627 with tags, fused parts or gaps limits assumed): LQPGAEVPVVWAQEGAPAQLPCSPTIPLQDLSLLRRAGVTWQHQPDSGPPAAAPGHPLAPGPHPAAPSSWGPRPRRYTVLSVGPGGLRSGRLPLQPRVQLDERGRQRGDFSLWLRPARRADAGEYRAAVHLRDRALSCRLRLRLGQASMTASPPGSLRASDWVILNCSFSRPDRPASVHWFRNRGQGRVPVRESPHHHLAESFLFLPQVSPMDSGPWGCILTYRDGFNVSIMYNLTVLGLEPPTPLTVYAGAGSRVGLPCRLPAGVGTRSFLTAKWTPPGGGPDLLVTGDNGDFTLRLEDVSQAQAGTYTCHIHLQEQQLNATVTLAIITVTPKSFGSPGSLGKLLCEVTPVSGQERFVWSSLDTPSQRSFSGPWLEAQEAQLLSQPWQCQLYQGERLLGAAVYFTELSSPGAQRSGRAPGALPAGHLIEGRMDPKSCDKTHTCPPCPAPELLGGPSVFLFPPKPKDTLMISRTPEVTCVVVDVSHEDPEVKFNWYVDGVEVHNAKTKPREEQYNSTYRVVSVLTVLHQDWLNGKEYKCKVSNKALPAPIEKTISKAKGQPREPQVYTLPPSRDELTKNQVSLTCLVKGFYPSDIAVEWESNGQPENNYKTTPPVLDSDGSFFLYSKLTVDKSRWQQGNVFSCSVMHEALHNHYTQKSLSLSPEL

B1: rLA1264: anti-human LAG-3 rat monoclonal antibody; heavy chain variable region SEQ ID No: 18, light chain variable region SEQ ID No: 20 (antibody, listed as Rattus norvegicus, V domains shown)
VH: EVQLVESGGGLVQPGRSLKLSCAASGFTFSSYYMAWVRQAPTKGLEWVAYISNGGYSTYYRDSVKGRFTISRENAKSTLYLQMDSLRSEDTATYYCTITDHSGYRFTYWGQGTLVTVSS
VL: DIQMTQSPSLLSASVGDRVTLSCKASQSIYNSLAWYQQKLGEAPKLLIYDANSLQTGIPSRFSGSGSGTDFTLTISSLQPEDVATYFCQKYYSGNTFGAGTKLELKRA
With B1, in assay [1], the “inhibitory activity in the LAG-3/MHC class II binding test” value (“inhibitory activity” below) was “almost no inhibitory activity”. The “immunoglobulin-like domain of LAG-3 bound (epitope)” value in assay [2] is given as “domain 3”.

B2: rLA869: anti-human LAG-3 rat monoclonal antibody; heavy chain variable region SEQ ID No: 14, light chain variable region SEQ ID No: 16 (antibody, listed as Rattus norvegicus, V domains shown)
VH: EVQLVESGGGLVQPGRSLKLSCAASGFTYRTYVMAWVRQGPTQGLEWVASISTGGVSTYYRDSVKGRFTISRDNAKNTLYLQMDSLRSEDTATYYCAKDMLNGYNSQGLFDYWGQGVMVTVSS
VL: NIVMTQSPKSMSISVGDRVTMNCRASQNVDNTIAWYQQKPGQSPKLLIYFASDRYTGVPDRFTGGGYGTDFTLTINSVQAEDAAFYYCQRIYNSPLTFGSGTKLEIRRA
B2: the “inhibitory activity” value in assay [1] was “almost no inhibitory activity”. In addition, the “immunoglobulin-like domain of LAG-3 bound (epitope)” value in assay [2] was “domain 3”.

B3: rLA225: anti-human LAG-3 rat monoclonal antibody; heavy chain variable region SEQ ID No: 10, light chain variable region SEQ ID No: 12 (antibody, listed as Rattus norvegicus, V domains shown)
VH: EVQLVESGGGLVQPGRSMKLSCVASGFTFSNYYMAWVRQAPTKGLEWVASISTGGGNTYYRDSVKGRFTISRDNAKSTLYLQMDSLRSEDTATYYCARPPYGYNYGWFTYWGQGTLVTVSS
VL: DIQMTQSPASLSASLGETVTIECRASEDIHNGLVWYQQKPGKSPQLLIYNANSMHTGVPSRFSGSGSGTQYSLKINSLQSEDVASYFCQQYYNYPRTFGGGTKLELKRA
B3: the “inhibitory activity” value in assay [1] is listed as “almost no inhibitory activity”. The “immunoglobulin-like domain of LAG-3 bound (epitope)” value in assay [2] is on record as “domain 3”. Further, in assay [3], the “binding to cells expressing the construct containing only domain 4 of human LAG-3” value is given as “none of them bound”. Also, the “binding to cells expressing the construct containing domains 3 and 4 of human LAG-3” value in assay [4] is “bound”.

B4: rLA212: anti-human LAG-3 rat monoclonal antibody; heavy chain variable region SEQ ID No: 6, light chain variable region SEQ ID No: 8 (antibody, listed as Rattus norvegicus, V domains shown)
VH: EVQLVESGGGLVQPGRSLKLSCAASGFTYRSYVMAWVRQAPTRGLEWVASISTGGGNTYYRDSVKGRFTISRDNAKNTLYLQMDSLRSEDTATYYCAEDMSNSGYGLFDYWGQGVMVTVSS
VL: NIVMTQSPKSMSISVGDRVTMNCKAGQNVDNNIAWYQKKPGQSPKLLIYYASNRNTGVPDRFTGGGYGTDFTLTINSVQAEDAAFYYCQRISNSPYTFGAGTELELKRA
With B4, the “inhibitory activity” value in assay [1] is reported as “almost no inhibitory activity”. Also, in assay [2], the “immunoglobulin-like domain of LAG-3 bound (epitope)” value is reported as “domain 3”. In assay [3], the “binding to cells expressing the construct containing only domain 4 of human LAG-3” value was “none of them bound”. Moreover, the “binding to cells expressing the construct containing domains 3 and 4 of human LAG-3” value in assay [4] is recorded as “bound”.

B5: rLA204: anti-human LAG-3 rat monoclonal antibody; heavy chain variable region SEQ ID No: 2, light chain variable region SEQ ID No: 4 (antibody, listed as Rattus norvegicus, V domains shown)
VH: EVELVESGGGLVQPGRSMKLSCAASGFTFRTYGMAWVRQAPTKGLEWVASISTGGGSTYYRDSVKGRFTISRDNAKSTLYLQMDSLRSEDTATYYCTTDLINYPGIGGFAFWGQGTLVTVSS
VL: NIVMTQSPKSMSISVGDRVTMNCKASQNVYNNIAWYQQKPGKSPKLLIYYASNRYTGVPDRFTGSGSGTDFTLTIHSVQAEDAAFYYCQRLYNSPPTFGGGTKLELKRA
Consider B5, for which the “inhibitory activity” value in assay [1] is listed as “almost no inhibitory activity”. For the same molecule, the “immunoglobulin-like domain of LAG-3 bound (epitope)” value in assay [2] is recorded as “domain 3”. Besides, in assay [3], the “binding to cells expressing the construct containing only domain 4 of human LAG-3” value is listed as “none of them bound”. In addition, in assay [4], the “binding to cells expressing the construct containing domains 3 and 4 of human LAG-3” value is recorded as “bound”.
